Laboratory results as given in patent publication US12662541B2, “Antibody-drug conjugates against the receptor tyrosine kinase EphA5” (Rutgers, The State University of New Jersey, priority 2021, dated 2026).
Substitutions are numbered along the chain they refer to. Blank lines part the entries; values can stand above or below the molecule they belong to.

Columns and labels:
rhEphA5 antigen [1] = molecular target: T1, rhEphA5 antigen (Homo sapiens, UniProt P54756); test: KD (M)
T1 construct: purchased R and D systems 3036-A5
Description: (§1) Table printed on a drawing sheet, FIG. 13
(§2) Head of the field: KD (M)
(§3) The patent's description of the figure: FIG. 13 is a table illustrating the single cycle kinetic parameters of chimeric (VH0/VK0) and humanized 11C12 variants (tested as cell culture supernatants) binding to rhEphA5 antigen as determined using the Biacore T200. The relative KD was calculated by dividing the KD of the humanized variant by that of the VH0/VK0 (top row) assayed in the same experiment. The variants marked with ‘*’ have KD values that are within two-fold of, or are better than, the chimeric antibody. The chimeric and selected variants marked in ‘#’ were identified as the main leads for purification. […]
(§4) Where the first naming reader finds the target: description_of_the_figure: humanized 11C12 variants (tested as cell culture supernatants) binding to rhEphA5 antigen as determined using the Biacore T200

EphA5 antigen [2] = molecular target: T2, EphA5 antigen (Homo sapiens, UniProt P54756); test: kd (1/s)
T2 construct: purchased R and D systems 3036-A5
Description: (§5) Table printed on a drawing sheet, FIG. 19
(§6) Head of the field: kd (1/s)
(§7) The patent's description of the figure: FIG. 19 is a table illustrating the Multi-cycle kinetic parameters of chimeric (VH0/VK0) and humanized variants (tested as purified proteins) binding to EphA5 antigen as determined using the Biacore T200. The relative KD was calculated by dividing the KD of the humanized variant by that of the VH0VK0 (first row) assayed in the same experiment. […]
(§8) Where the first naming reader finds the target: description_of_the_figure: humanized variants (tested as purified proteins) binding to EphA5 antigen as determined using the Biacore T200

EphA5 antigen [3] = molecular target: T2, EphA5 antigen; test: KD (M)
Description: as §5, §2, §7, §8

EphA5 antigen [4] = molecular target: T2, EphA5 antigen; test: ka (1/Ms)
Description: as §5
(§9) Head of the field: ka (1/Ms)
as §7, §8

rhEphA5 antigen [5] = molecular target: T1, rhEphA5 antigen; test: kd (1/s)
Description: as §1, §6, §3, §4

rhEphA5 antigen [6] = molecular target: T1, rhEphA5 antigen; test: ka (1/Ms)
Description: as §1, §9, §3, §4

rhEphA5 antigen [7] = molecular target: T1, rhEphA5 antigen; test: Multi-cycle kinetic analysis (Biacore T200) of purified antibodies; assay type: binding
Description: In order to assess the binding of the six lead humanized variants to rhEphA5 antigen, multi-cycle kinetic analysis (FIG. 68) was performed on purified material. Kinetic experiments were performed at 25° C. on a Biacore T200 running Biacore T200 Control software V2.0.1 and Evaluation software V3.0 (GE Healthcare, Uppsala, Sweden).
HBS-P+ (GE Healthcare, Uppsala, Sweden), supplemented with 1% BSA w/v (Sigma, Dorset, UK) was used as running buffer as well as for ligand and analyte dilutions. Purified lead antibodies were diluted to 0.5 μg/mL in running buffer and at the start of each cycle, loaded onto Fc2, Fc3 and Fc4 of an anti-human IgG CMS sensor chip (GE Healthcare, Little Chalfont, UK). Antibodies were captured at a flow rate of 10 μl/min to give an immobilization level (RL) of 50 RU. The surface was then allowed to stabilize.
Multi-cycle kinetic data was obtained using recombinant EphA5 as the analytes injected at a flow rate of 30 μl/min to minimize any potential mass transfer effects. A five point, three-fold dilution range from 1.11 nM to 270 nM of EphA5 was prepared in running buffer. For each concentration, the association phases were monitored for 210 seconds and the dissociation phase was measured for 900 seconds. Regeneration of the sensor chip surface was conducted between cycles using two injections of 3 M MgCl2. […]
Target sequence in this assay (P54756 25-573 limits assumed): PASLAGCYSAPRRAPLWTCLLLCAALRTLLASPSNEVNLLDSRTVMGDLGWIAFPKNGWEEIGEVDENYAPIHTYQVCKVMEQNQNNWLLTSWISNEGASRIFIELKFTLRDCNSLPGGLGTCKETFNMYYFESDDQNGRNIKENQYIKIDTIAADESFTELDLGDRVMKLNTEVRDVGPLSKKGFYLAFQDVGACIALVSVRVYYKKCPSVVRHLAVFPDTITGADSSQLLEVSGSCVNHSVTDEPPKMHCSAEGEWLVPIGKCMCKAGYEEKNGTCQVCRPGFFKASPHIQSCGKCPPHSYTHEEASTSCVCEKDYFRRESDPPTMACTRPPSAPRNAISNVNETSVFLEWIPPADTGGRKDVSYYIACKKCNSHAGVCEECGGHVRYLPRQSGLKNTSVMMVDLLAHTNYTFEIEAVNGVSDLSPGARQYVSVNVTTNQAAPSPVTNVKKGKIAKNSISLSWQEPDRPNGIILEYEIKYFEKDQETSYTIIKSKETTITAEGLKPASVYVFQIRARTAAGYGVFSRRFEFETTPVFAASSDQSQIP

[8] = Thermal ramp stability (UNcle biostability platform, Sypro Orange and SLS); assay type: physicochemical
Excerpt: Thermal ramp stability experiments (Tm and Tagg) are well established methods for ranking proteins and formulations for stability. A protein's denaturation profile provides information about its thermal stability and represents a structural ‘fingerprint’ for assessing structural and formulation buffer modifications. A widely used measure of the thermal structural stability of a protein is the temperature at which it unfolds from the native state to a denatured state. For many proteins, this unfolding process occurs over a narrow temperature range and the mid-point of this transition is termed ‘melting temperature’ or ‘Tm’. To determine the melting temperature of a protein, UNcle measures the fluorescence of Sypro Orange (which binds to exposed hydrophobic regions of proteins) as the protein undergoes conformational changes.
Samples for each variant were formulated in PBS and Sypro Orange at a final concentration of 1 mg/mL. […] Samples were subjected to a thermal ramp from 25-95° C., with a ramp rate of 0.3° C./minute and excitation at 473 nm. Full emission spectra were collected from 250-720 nm, and the area under the curve between 510-680 nm was used to calculate the inflection points of the transition curves (Tonset and Tm). Monitoring of static light scattering (SLS) at 473 nm allowed the detection of protein aggregation, and Tagg (onset of aggregation) was calculated from the resulting SLS profiles. Thermal stability values determined lie in a broad range from 57.9 to 69.6° C. (Tm1), 55.1 to 65.2° C. (Tonset) and 65.6 to 70.2° C. (Tagg) with the humanized leads generally showing improved profiles when compared to the chimeric antibody. […] All humanized antibodies appear to have a higher Tm1, Tonset and Tagg compared to the chimeric antibody.

H226 cells (EphA5−) = test: Flow cytometry cell binding, H226 negative control cells; assay type: cell-based, human; settings: from 10 μg/ml, three-fold three point dilution
Description: (§10) A H460 cell line stably expressing EphA5 (provided by Rutgers) was used, alongside H226 cells as a negative control, to test for antibody binding in a flow cytometry assay. The cell lines were first assessed for target expression using 10 μg/ml of the murine 11C12 provided by Rutgers) and MolgG1 non-binging control (Biolegend, California, US). Goat anti-mouse Alexa Fluor 647 (Thermo Fisher, Loughborough, UK) was used for antibody detection.
(§11) For cell binding assays, both cell lines were resuspended in FACS buffer (PBS+1% BSA+0.1% sodium azide) and seeded in 96 well U bottom plates at 1×105 (100 μl) cells per well. The chimeric and six purified humanized variants were tested in the assay alongside the 11C12 murine positive control, MolgG1 and HulgG1 non-binding controls. Samples were prepared at a starting concentration of 10 μg/ml in FACS buffer and underwent a four-fold seven point serial dilution for testing with H460 cells and a three-fold three point serial dilution for the H226 cells. […] Median fluorescence intensity (MFI) was measured using an Attune N×T Flow Cytometer (Thermo Fisher, Loughborough, UK) and 10,000 gated events were acquired per sample. For data analysis, live cell populations were gated based on the forward and side scatter dot plot allowing the Alexa Fluor 647 MFI values to be measured in the RL1 channel.

[9] = molecular target: T3, H460 cell line stably expressing EphA5 (Homo sapiens, UniProt P54756); test: Flow cytometry cell binding, H460 cells; assay type: cell-based; settings: from 10 μg/ml, four-fold seven point dilution
T3 construct: endogenous in cells; host or cells: H460 human lung carcinoma cells (provided by Rutgers)
Description: as §10, §11

T3 sequence (P54756 25-1037): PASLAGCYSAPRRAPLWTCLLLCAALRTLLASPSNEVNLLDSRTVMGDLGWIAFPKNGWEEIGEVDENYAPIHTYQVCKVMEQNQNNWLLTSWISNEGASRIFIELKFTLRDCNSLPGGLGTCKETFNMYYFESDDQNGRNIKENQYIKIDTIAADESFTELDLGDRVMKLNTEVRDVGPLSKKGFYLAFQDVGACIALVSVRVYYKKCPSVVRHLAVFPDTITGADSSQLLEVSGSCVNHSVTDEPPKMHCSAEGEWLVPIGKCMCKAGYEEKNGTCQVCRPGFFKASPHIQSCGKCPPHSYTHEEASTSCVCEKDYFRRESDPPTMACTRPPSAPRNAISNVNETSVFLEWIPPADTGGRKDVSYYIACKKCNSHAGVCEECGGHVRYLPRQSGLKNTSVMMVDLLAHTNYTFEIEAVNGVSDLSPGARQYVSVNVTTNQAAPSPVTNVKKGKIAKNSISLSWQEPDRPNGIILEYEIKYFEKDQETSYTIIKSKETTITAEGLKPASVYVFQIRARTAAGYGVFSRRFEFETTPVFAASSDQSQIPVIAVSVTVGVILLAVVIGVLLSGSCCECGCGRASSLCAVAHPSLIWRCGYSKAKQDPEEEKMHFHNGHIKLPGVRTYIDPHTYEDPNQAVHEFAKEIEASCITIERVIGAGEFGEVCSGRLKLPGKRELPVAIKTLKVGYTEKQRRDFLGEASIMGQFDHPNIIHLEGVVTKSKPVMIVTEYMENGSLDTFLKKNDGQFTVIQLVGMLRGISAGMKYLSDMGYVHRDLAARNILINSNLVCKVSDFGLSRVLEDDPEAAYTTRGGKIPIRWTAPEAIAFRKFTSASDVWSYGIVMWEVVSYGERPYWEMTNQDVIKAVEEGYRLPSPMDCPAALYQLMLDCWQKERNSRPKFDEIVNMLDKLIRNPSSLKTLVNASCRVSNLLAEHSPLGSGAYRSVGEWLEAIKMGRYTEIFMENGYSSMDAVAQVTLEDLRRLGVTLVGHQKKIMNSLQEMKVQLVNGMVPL

- Kd (rhEphA5 antigen [1]): 0.956 nM
- kd (EphA5 antigen [2]): 0.00142 s⁻¹
- Kd (EphA5 antigen [3]): 1.08 nM
- ka (EphA5 antigen [4]): 1.31e+06 M⁻¹ s⁻¹
B1: VH3/VK4: humanized anti-EphA5 antibody, VH SEQ ID NO:4, VL SEQ ID NO:12; lead variant (antibody, V domains shown)
VH: EVQLVESGGGLVQPGGSLKLSCAASGFTFSTFGIHWVRQAPGKGLEWVAYISGASTTIYYADTVKGRFTISRDNSKNTLYLQMNSLRSEDTAMYYCARYGTSFPYGLDYWGQGTLVTVSS
VL: DIVMTQSPDSLAVSLGERATINCKSSQSVDYDGDSYMNWYQQKPGKAPKLLIYGASNLESGIPDRFSGSGSGTDFTLTISRLEPEDAASYYCQQSNEDPFTFGQGTKLEIK

- kd (rhEphA5 antigen [5]): 0.00153 s⁻¹
- ka (rhEphA5 antigen [6]): 1.15e-06 M⁻¹ s⁻¹
- RMAX (rhEphA5 antigen [7]; 1:1 model fit): 47.8
- kd (rhEphA5 antigen [7]; 1:1 model, binding to EphA5): 0.0015 s⁻¹
B2: VH0/VK0: chimeric antibody with murine 11C12 variable regions (SEQ ID NO:1, 8) and human IgG1/kappa constant regions (antibody, V domains shown)
VH: B1 VH with Q3T, V5K, L18R, G42E, S75P, Y80F, N84T, L115S
VL: DIVMTQSPGSLAVSLGQRATISCKASQSVDYDGDSYMNWYQQKPGQPPKLLIYGASNLESGIPARFSGSGSGTDFTLNIHPVEEEDAASYYCQQSNEDPFTFGSGTKLEIK
modifications: human IgG1/kappa constant regions
- Average Tm2 (° C.) [8]: 65.83 °C
- Average Tonset (° C.) [8]: 55.1 °C
- transitions detected in thermal unfolding [8]: two transitions (Tm1 and Tm2)
- Average Tm1 (° C.) ([8]; 1 mg/mL in PBS, ramp 25-95° C.): 57.9 °C
- Average Tagg 473 (° C.) ([8]; SLS at 473 nm): 65.6 °C
- Tm2 (° C.) ([8]; single replicate): 65.83 °C

B3: 11C12: anti-human EphA5 monoclonal murine antibody, parental and positive control (antibody, V domains shown)
VH: B1 VH with Q3T, V5K, L18R, G42E, S75P, Y80F, N84T, L115S
VL: B2 VL
- binding to H226 (EphA5 negative) cells (H226 cells (EphA5−)): no binding
- binding to H460 (EphA5+) cells, MFI dose response [9]: bound to the positive cell line in a concentration dependent manner

- kd (rhEphA5 antigen [5]): 0.00141 s⁻¹
- ka (rhEphA5 antigen [6]): 1.35e-06 M⁻¹ s⁻¹
- kd (EphA5 antigen [2]): 0.00128 s⁻¹
- ka (EphA5 antigen [4]): 1.23e+06 M⁻¹ s⁻¹
B4: VH5/VK4: humanized anti-EphA5 antibody, VH SEQ ID NO:6, VL SEQ ID NO:12; lead variant (antibody, V domains shown)
VH: B1 VH with T63S, S88A, M93V
VL: B1 VL
- Tagg ranking among the leads (SLS profiles) [8]: highest Tagg values

- kd (rhEphA5 antigen [5]): 0.00123 s⁻¹
- ka (rhEphA5 antigen [6]): 1.38e-06 M⁻¹ s⁻¹
- kd (EphA5 antigen [2]): 0.00125 s⁻¹
- ka (EphA5 antigen [4]): 1.34e+06 M⁻¹ s⁻¹
B5: VH5/VK2: humanized anti-EphA5 antibody, VH SEQ ID NO:6, VL SEQ ID NO:10; lead variant (antibody, V domains shown)
VH: B1 VH with T63S, S88A, M93V
VL: B1 VL with S25A
